Results taken from patent publication US20260176378A1 (DYAX, published 2026).
Blank lines part the entries; values can stand above or below the binder they belong to.

Key:
[1] = biological target: T1, pKal catalytic domain Mutant 2 (human, UniProt P03952 391-638); assay: equilibrium Ki,app
T1 construct: Pichia pastoris; construct limits derived as for the wild type domain; not shown: His tag fusion
Method: Enzyme and inhibitor were pre-incubated for 2 hours at 30° C. in a 96-well plate by adding 10 μL of a 10× enzyme solution and 10 μL of 10× inhibitor solutions to 70 μL of reaction buffer. Reactions were initiated by the addition of 10 μL of a 10× concentrated stock of substrate, and were monitored at 30° C. in a fluorescence plate reader with the excitation and emission wavelengths set at 360 nm/460 nm, respectively. Kinetic data were acquired by the increase in fluorescence, and initial rates for each condition were plotted against the total inhibitor concentration. The data was fit to the following equation for tight binding inhibitors: […]

[2] = biological target: T2, human plasma kallikrein (human, UniProt P03952 20-390; P03952 391-638); assay: ELISA, biotinylated pKal signal over streptavidin background
T2 construct: two disulfide-linked chains; NP_000883.2; also called pKal; hpKal
T2 sequence (P03952 20-390 limits assumed, chain 1 of 2): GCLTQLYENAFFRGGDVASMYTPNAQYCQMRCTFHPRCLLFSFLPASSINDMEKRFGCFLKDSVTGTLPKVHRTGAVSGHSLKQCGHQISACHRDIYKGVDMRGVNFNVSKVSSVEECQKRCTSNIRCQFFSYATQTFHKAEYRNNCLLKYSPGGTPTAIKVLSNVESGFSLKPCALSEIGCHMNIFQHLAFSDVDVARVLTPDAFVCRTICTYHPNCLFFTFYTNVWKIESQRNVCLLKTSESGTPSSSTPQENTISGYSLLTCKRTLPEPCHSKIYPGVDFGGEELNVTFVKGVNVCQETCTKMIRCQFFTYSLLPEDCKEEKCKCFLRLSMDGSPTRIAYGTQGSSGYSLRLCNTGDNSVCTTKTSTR
T2 sequence (P03952 391-638 limits assumed, chain 2 of 2): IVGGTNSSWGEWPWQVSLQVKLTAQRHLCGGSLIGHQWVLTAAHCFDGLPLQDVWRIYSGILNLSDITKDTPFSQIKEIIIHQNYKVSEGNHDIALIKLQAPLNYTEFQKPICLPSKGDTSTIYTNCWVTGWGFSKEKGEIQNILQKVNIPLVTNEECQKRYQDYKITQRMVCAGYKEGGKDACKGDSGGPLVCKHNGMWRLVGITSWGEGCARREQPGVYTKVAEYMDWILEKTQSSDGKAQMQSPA

T1 sequence (P03952 other isoform, or with tags, fused parts or gaps mutant): as the sequence (P03952 391-638 limits assumed, chain 2 of 2) above, with R161A, Q163A, Y165A, T168A, R170A counted along it

fold change of Ki,app against the wild type catalytic domain [1]: ~5 fold | ELISA (T/B) [2]: 39.9
B1: M6-D09 (Fab, V domains shown)
VH: EVQLLESGGGLVQPGGSLRLSCAASGFTFSFYYMVWVRQAPGKGLEWVSVIYPSGGITVYADSVKGRFTISRDNSKNTLYLQMNSLRAEDTAVYYCARDKWAVMPPYYYYAMDVWGQGTTVTVSS
VL: DIQMTQSPSSLSASVGDRVTITCRASQSIRNYLNWYQQKPGKAPNLLIYAASTLQSGVPARFSGSGSGTDFTLTISSLQPEDFATYYCQQLSGYPHTFGQGTKLEIK
notes: also called M06-D09; 559A-M06-D09

ELISA (T/B) [2]: 5.4
B2: M8-A09 (Fab, V domains shown)
VH: EVQLLESGGGLVQPGGSLRLSCAASGFTFSTYFMLWVRQAPGKGLEWVSSIYPSGGNTVYADSVKGRFTISRDNSKNTLYLQMNSLRAEDTAVYYCARAASPVRNYYYYGMDVWGQGTTVTVSS
VL: QCELTQPPSESVSPGQTANITCSGDKLGNKYAYWYQQKPGQSPVLVIYQDNNRPSGIPERFSGSNSGNTATLTISGTQAIDEANYYCQAWDSRTVVFGGGTKLTVL

ELISA (T/B) [2]: 39.2
B3: M10-F10 (Fab, V domains shown)
VH: EVQLLESGGGLVQPGGSLRLSCAASGFTFSFYNMNWVRQAPGKGLEWVSSISPSGGETNYADSVKGRFTISRDNSKNTLYLQMNSLRAEDTAVYYCARGGGAYRNNWWGGFDIWGLGTMVTVSS
VL: DIQMTQSPSSLSASVGDRVTITCRASQSISVYLNWYQHKPGKAPKLLIYGASNLQFGVPSRFSGSGYGTDFTLTISSLQPEDFATYHCQQTFSLFTFGGGTKVEIK
